According to patent US20220372542A1, “DETECTION OF ANALYTES BY PROTEIN SWITCHES” (ABBOTT DIABETES CARE INC., priority 2019, published 2022):

B1: GDH-2025: Warfarin protein switch, SEQ ID NO: 1; SEQ ID NO:11 with mutation C96F (protein)
chain: AMYPDLKGKVVAITGAASGLGKAMAIRFGKEQAKVVINYYSNKQDPNEVKEEVIKAGGEAVVVQGDVTKEEDVKNIVQTAIKEFGTLDIMINNAGLFNPVPSHEMPLKDWDKVIGTNLTGAFLGSREAIKYFVENDIKGNVINMSSVHEVIPWPLASHYTASKGGMKLMTKTLALEYAPKGIRVNNIGPGAINTTINAEKFADPKQKADVESMIPMGYIGEPEEIAAVAAWLASKEASYVTGITLFADGGMTLYPSFQAGRG
B2: GDH-2028: Warfarin protein switch, SEQ ID NO: 15; mutations C96F; L252V (protein)
chain: MYPDLKGKVVAITGAASGLGKAMAIRFGKEQAKVVINYYSNKQDPNEVKEEVIKAGGEAVVVQGDVTKEEDVKNIVQTAIKEFGTLDIMINNAGLFNPVPSHEMPLKDWDKVIGTNLTGAFLGSREAIKYFVENDIKGNVINMSSVHEVIPWPLASHYTASKGGMKLMTKTLALEYAPKGIRVNNIGPGAINTTINAEKFADPKQKADVESMIPMGYIGEPEEIAAVAAWLASKEASYVTGITLFADGGMTVYPSFQAGRG

Tests used:
[1] = Beaker calibration: glucose sensitivity of protein switch sensors; type: biochemical; details: Sensor active area 0.33 mm^2 with PVP membrane; 100 mM PBS, room temperature, 1-30 mM glucose
[2] = Beaker stability (long-term stability) of protein switch sensors; type: physicochemical; details: Sensor in 30 mM glucose in 100 mM PBS at 33° C., after 1 day
Procedure: Beaker Stability. The beaker stability (long-term stability) of the sensor GDH-105 and the sensors comprising the protein switches GDH-2004, GDH-2007, GDH-2008, GDH-2009, GDH-2010, GDH-2011, GDH-2015, GDH-2018, GDH-2019, GDH-2005, GDH-2013, GDH-2016, and GDH-2024 described above were evaluated in 30 mM glucose in 100 mM PBS at 33° C. as shown in FIG. 8. After 4 days, each of the signals experienced a sensor drop (decreased stability for detecting glucose) at different rates, as shown in Table 10.
Beaker Stability. The beaker stability (long-term stability) of the GDH-105, GDH-2025, GDH-2026, GDH-2027, and GDH-2028 sensors were evaluated in 30 mM glucose in 100 mM PBS at 33° C. as shown in FIG. 11. After 1 day, each of the signals experience sensor drop (decreased stability for detecting glucose) of different rates, as provided in Table 12.

[3] = Warfarin inhibition of protein switch sensors in test beaker; type: biochemical; details: 100 mM PBS 33° C., 10 mM NAD+; for effect of increasing warfarin concentrations on sensor signal: 5 mM glucose, 10, 30, 80, 180, 300 uM warfarin, FIGS. 12A, 12B, 13; for sensor response to glucose addition: glucose 5 mM
Procedure: Warfarin Sensor. Experimental GDH-105 and GDH-2016 glucose-responsive active areas were prepared using a single-layer active area system. The GDH was obtained from Codexis, Redwood City, Calif. The active area was coated onto a carbon working electrode in a single layer composition (Table 8). Following deposition of the active area, the active area was cured for three days at RT.
Experimental procedure. Testing of the GDH-105 and GDH-2016 sensors was conducted by immersing the electrode in a 100 mM PBS buffer solution at 33° C. NAD^+ (5 mM) supplied to a test beaker containing PBS buffer followed by the addition of glucose (1 mM).
Evolved Warfarin sensors. GDH-105, GDH-2016, GDH-2025, GDH-2026, GDH-2027, and GDH-2028 glucose-responsive active areas were prepared using a single-layer active area system. The GDH was obtained from Codexis, Redwood City, Calif. The active area (0.33 mm^2) was coated onto a carbon working electrode in a single layer composition (Table 8). Following deposition of the active area, the active area was cured for three days at room temperature.
Experimental procedure. Testing of the GDH-105, GDH-2016, GDH-2025, GDH-2026, GDH-2027, and GDH-2028 sensors was conducted by immersing the electrode in a 100 mM PBS buffer solution at 33° C. NAD^+(10 mM) supplied to a test beaker containing PBS buffer followed by the addition of glucose (5 mM).

Row | Molecule | Sensitivity [1] [nA/mM] | Signal drop (1 day) [2] [%] | effect of increasing warfarin concentrations on sensor signal [3] | sensor response to glucose addition [3]
1 | B1 | 0.32 | −58 | inhibition | showed response to glucose addition
2 | B2 | 0.09 | −68 | inhibition | showed response to glucose addition
